In the assay the target is T1, GST-NLRP1^PYD (Homo sapiens, UniProt Q9C000).
T1 construct: NLRP1, human, pyrin domain (PYD), aa 1-92; Vector: customised destination vector based on pGEX-2T; also called GST-NRLP1^PYD; source: E. coli BL21, purified (glutathione resin, gel filtration)
The assay can be described thus: ELISA; GST-NLRP1^PYD or GST in PBS immobilised on ELISA plates at 1 ug/ml overnight; serial tenfold dilutions of HA-tagged nanobodies in 10% FBS/PBS; detected with HRP-coupled anti-HA and TMB, absorption at 450 nm. The following applies: both partners purified. (In general: ELISA stands for enzyme-linked immunosorbent assay.)

T1 sequence (Q9C000 1-92): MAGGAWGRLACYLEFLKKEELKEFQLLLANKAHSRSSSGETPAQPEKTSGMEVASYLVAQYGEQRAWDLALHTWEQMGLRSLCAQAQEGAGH

B1: VHH_(NLRP1 PYD) 2 (VHH)
VHH: QVQLVESGGGLVQTGGSLRLSCVASGGTFSRFTMAWFRQAPGKEREFVAGVSWSGGLTHYSDSVKGRFTISRDNAKNTLYLQMSSLKPEDTAVYYCYGQSTVAGATIDYWGQGTQVTVSS
notes: Alpaca nanobody raised against His-NLRP1^PYD, selected by phage display on GST-NLRP1^PYD; cloned into a pHEN6-based periplasmic vector with C-terminal HA-His6; also called VHHPYD 2; NLRP1^PYD nanobody 2; source: E. coli WK6, periplasmic extract, purified (Ni-NTA, desalting); not shown: HA, C-terminal, kept
Regarding B1, the binding result is reported as “binds”.

B2: VHH_(NLRP1 PYD 1) (VHH)
VHH: QVQLVESGGGLVEAGGSLRLSCAASGRTFSNYALSWFRQAPGKERELVAAISWSGDYTYYADSVKGRFTISRDNAKNTVYLQMHSLKPEDTAVYYCNADSRSGTYSPSSGSWGQGTQVTVSS
notes: Alpaca nanobody raised against His-NLRP1^PYD, selected by phage display on GST-NLRP1^PYD; cloned into a pHEN6-based periplasmic vector with C-terminal HA-His6; also called VHHPYD 1; NLRP1^PYD nanobody 1; source: E. coli WK6, periplasmic extract, purified (Ni-NTA, desalting); not shown: HA, C-terminal, kept
As to B2, the binding result was “binds”.

The values above are taken from paper PMC9623368, “P38 kinases mediate NLRP1 inflammasome activation after ribotoxic stress response and virus infection” (The Journal of Experimental Medicine, 2022).
